Paper PMC6704074, “Structural basis for lamin assembly at the molecular level” (Nature Communications, 2019)
Values joined by “and” are separate entries in the source; they are usually repeats but may differ in a detail not shown here. Equal values may be shown once. Each block holds one binder with its values, some of them ahead of it.

B5: lamin 300 fragment, wild type (human lamin A/C residues 1–300), His tag cleaved (domain or fragment, UniProt P02545 1-300, looked up)
chain: METPSQRRATRSGAQASSTPLSPTRITRLQEKEDLQELNDRLAVYIDRVRSLETENAGLRLRITESEEVVSREVSGIKAAYEAELGDARKTLDSVAKERARLQLELSKVREEFKELKARNTKKEGDLIAAQARLKDLEALLNSKEAALSTALSEKRTLEGELHDLRGQVAKLEAALGEAKKQLQDEMLRRVDAENRLQTMKEELDFQKNIYSEELRETKRRHETRLVEIDNGKQREFESRLADALQELRAQHEDQVEQYKKELEKTYSAKLDNARQSAERNSNLVGAAHEELQQSRIRID
notes: lamin A/C, human, residues 1-300; Mostly a dimer by SEC-MALS; also called WT; lamin 1–300 fragment; source: E. coli BL21 (DE3), purified (Ni-NTA, TEV, HiTrap Q, SEC); not shown: His tag, N-terminal, cleaved
B6: lamin 300 fragment A146C mutant (human lamin A/C residues 1–300), His tag cleaved (domain or fragment, UniProt P02545 1-300, looked up)
chain: METPSQRRATRSGAQASSTPLSPTRITRLQEKEDLQELNDRLAVYIDRVRSLETENAGLRLRITESEEVVSREVSGIKAAYEAELGDARKTLDSVAKERARLQLELSKVREEFKELKARNTKKEGDLIAAQARLKDLEALLNSKECALSTALSEKRTLEGELHDLRGQVAKLEAALGEAKKQLQDEMLRRVDAENRLQTMKEELDFQKNIYSEELRETKRRHETRLVEIDNGKQREFESRLADALQELRAQHEDQVEQYKKELEKTYSAKLDNARQSAERNSNLVGAAHEELQQSRIRID
modifications: disulfide bond through Cys146 in the non-reduced protein
notes: lamin A/C, human, residues 1-300; Non-reduced: partly a disulfide-linked tetramer; with TCEP: dimer (A146C^R); also called lamin 300 A146C; A146C variant; source: E. coli BL21 (DE3), purified (Ni-NTA, TEV, HiTrap Q, SEC); not shown: His tag, N-terminal, cleaved

Columns and labels:
[1] = target: B5; assay: cross-linking; sulfo-SMPB (0-250 μM) added to 20 μM lamin 300 and 286-400 R388C, 1 h, 20 mM HEPES pH 7.5, 50 mM NaCl, 1 mM EDTA; SDS-PAGE bands digested with chymotrypsin, MS/MS; conditions: both partners purified
[2] = target: the molecule itself; assay: as above
[3] = target: T1, His-tagged lamin 300 fragment, wild type (human lamin A/C residues 1–300) (human, UniProt P02545 1-300); assay: pull-down; His-tagged lamin 300 (wild type, Y45C, L59R) on Ni-NTA resin; lamin 250-400 as prey; 20 mM Tris-HCl pH 8.0 with 50 or 150 mM NaCl; SDS-PAGE; conditions: both partners purified
T1 construct: lamin A/C, human, residues 1-300; The plasmid also encodes a TEV site between the tag and the lamin residues (pProEx-HTa); also called His-lamin; His-tagged wild-type lamin 300 fragment; source: E. coli BL21 (DE3), purified (Ni-NTA, HiTrap Q, SEC; no TEV treatment); not shown: His tag, N-terminal, kept
T1 sequence (looked up): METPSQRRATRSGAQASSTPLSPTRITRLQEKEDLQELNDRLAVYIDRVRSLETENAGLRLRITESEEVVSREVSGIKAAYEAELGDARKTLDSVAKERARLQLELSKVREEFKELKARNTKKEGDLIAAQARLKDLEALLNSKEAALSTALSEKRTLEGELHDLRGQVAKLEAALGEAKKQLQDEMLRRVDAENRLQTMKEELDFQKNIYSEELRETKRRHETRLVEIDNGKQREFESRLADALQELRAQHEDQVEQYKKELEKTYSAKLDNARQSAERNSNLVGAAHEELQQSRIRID

[4] = target: B6; assay: pull-down; lamin 300 A146C coupled to CNBr-activated Sepharose; fragments at 66 μM; 20 mM Tris-HCl pH 8.0, 150 mM NaCl, non-reducing; Tris-blocked resin as control; SDS-PAGE; conditions: both partners purified
[5] = target: T1, His-tagged lamin 300 fragment, wild …; assay: ITC; His-lamin 300 (20 μM) in the cell, His-250-400 (160 μM) in the syringe; PBS, 25 °C, 19 injections of 2 μL; conditions: both partners purified
[6] = target: T2, His-tagged lamin 300 fragment L59R mutant (human, UniProt P02545 1-300, L59R); assay: as above; conditions: both partners purified
T2 construct: lamin A/C, human, residues 1-300, with the dilated cardiomyopathy mutation L59R; source: E. coli BL21 (DE3), purified (Ni-NTA, HiTrap Q, SEC; no TEV treatment)
T2 sequence (looked up): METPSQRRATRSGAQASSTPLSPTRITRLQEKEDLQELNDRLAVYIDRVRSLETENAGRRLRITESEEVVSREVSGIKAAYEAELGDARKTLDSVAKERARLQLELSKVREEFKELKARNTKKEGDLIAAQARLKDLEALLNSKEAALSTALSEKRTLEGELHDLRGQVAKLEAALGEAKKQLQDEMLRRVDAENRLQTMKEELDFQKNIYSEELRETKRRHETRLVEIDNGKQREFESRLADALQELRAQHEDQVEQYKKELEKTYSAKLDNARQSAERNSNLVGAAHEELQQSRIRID

[7] = target: B5; assay: pull-down; His-F3 on Ni-NTA resin as bait; tag-cleaved lamin 300 proteins as prey; 20 mM Tris-HCl pH 8.0 with 150 or 50 mM NaCl, room temperature 30 min, wash with 20 mM imidazole; 2 mM TCEP for reduced A146C; SDS-PAGE; conditions: both partners purified
[8] = target: B6; assay: as above; conditions: both partners purified
[9] = target: the molecule itself; assay: crystal structure; SeMet-labelled lamin 1-300, His tag cleaved, 7 mg/mL; 0.1 M Tris-HCl pH 8.5, 0.9 M LiCl, 7% PEG 8000, 14 °C; SAD, 3.2 Å
[10] = target: the molecule itself; assay: SEC-MALS; 2.5 mg/ml, Superdex 200 Increase 5/150 GL, non-reducing buffer Tris-HCl pH 8.0, 150 mM NaCl

binding result [1]: binds
B1: lamin 286–400 R388C mutant (domain or fragment, human, UniProt P02545 286-400, looked up)
chain: GAAHEELQQSRIRIDSLSAQLSQLQKQLAAKEAKLRDLEDSLARERDTSRRLLAEKEREMAEMRARMQQQLDEYQELLDIKLALDMEIHAYRKLLEGEEERLCLSPSPTSQRSRG
notes: lamin A/C, human, residues 286-400; runs at 14 kDa on SDS-PAGE; Reduced with 2 mM DTT and desalted before cross-linking; also called coil 2 (286–400) R388C; coil 2 R388C; source: E. coli BL21 (DE3), purified
binding result [2]: binds

binding result [3]: binds
binding result [4]: binds
B2: lamin 250–400 fragment (F3), without His tag (domain or fragment, human, UniProt P02545 250-400, looked up)
chain: AQHEDQVEQYKKELEKTYSAKLDNARQSAERNSNLVGAAHEELQQSRIRIDSLSAQLSQLQKQLAAKEAKLRDLEDSLARERDTSRRLLAEKEREMAEMRARMQQQLDEYQELLDIKLALDMEIHAYRKLLEGEEERLRLSPSPTSQRSRG
notes: lamin A/C, human, residues 250-400 (coil 2, residues 240-385, without its N-terminal ten residues); not called His-tagged there, so by the common procedure the tag would be cleaved; also called coil 2 fragment; C-terminal part of coil 2; source: E. coli BL21 (DE3), purified (Ni-NTA, TEV, HiTrap Q, SEC)

binding result [5]: binds
fold higher binding affinity than the wild type (from KD values) [6]: ~40 fold
binding result [7]: binds
binding result [8]: binds
B3: His-F3 (His-tagged lamin A/C residues 250–400) (domain or fragment, human, UniProt P02545 250-400, looked up)
chain: AQHEDQVEQYKKELEKTYSAKLDNARQSAERNSNLVGAAHEELQQSRIRIDSLSAQLSQLQKQLAAKEAKLRDLEDSLARERDTSRRLLAEKEREMAEMRARMQQQLDEYQELLDIKLALDMEIHAYRKLLEGEEERLRLSPSPTSQRSRG
notes: lamin A/C, human, residues 250-400; The plasmid also encodes a TEV site between the tag and the lamin residues (pProEx-HTa); also called his-tagged 250–400 fragment; coil 2 fragment; source: E. coli BL21 (DE3), purified (Ni-NTA, HiTrap Q, SEC; no TEV treatment); not shown: His tag, N-terminal, kept

B4: selenomethionine-labelled lamin A/C fragment (residues 1–300), His tag cleaved (domain or fragment, human, UniProt P02545 1-300, looked up)
chain: METPSQRRATRSGAQASSTPLSPTRITRLQEKEDLQELNDRLAVYIDRVRSLETENAGLRLRITESEEVVSREVSGIKAAYEAELGDARKTLDSVAKERARLQLELSKVREEFKELKARNTKKEGDLIAAQARLKDLEALLNSKEAALSTALSEKRTLEGELHDLRGQVAKLEAALGEAKKQLQDEMLRRVDAENRLQTMKEELDFQKNIYSEELRETKRRHETRLVEIDNGKQREFESRLADALQELRAQHEDQVEQYKKELEKTYSAKLDNARQSAERNSNLVGAAHEELQQSRIRID
modifications: selenomethionine-labelled
notes: lamin A/C, human, residues 1-300 (head, coil 1a, L1, coil 1b, L12, first half of coil 2); Four protomers (chains A-D) in the asymmetric unit: two parallel coiled-coil dimers (A:B, C:D) packed anti-parallel; also called lamin 300 fragment; N-terminal half fragment of human lamin A/C; source: E. coli B834 (DE3), M9 medium with L-(+)-selenomethionine, purified (Ni-NTA, TEV, HiTrap Q, SEC); not …
binding result [9]: binds

Binder: B5
stoichiometry N [10]: 2

Binder: B6
stoichiometry N [10]: 4 and 2
